Molecular target: T1, His-Fibronectin type III domain (426-540) (human, UniProt P29317 426-540)
T1 construct: also called His-Fibrinctin type III domain (426-540); Fibronectin type III domain of EPHA2; not shown: histidine tag added to the amino terminus
Test: SPR (Biacore T100), antibody captured on anti-human IgG(Fc), antigen as analyte, 1:1 model

T1 sequence (P29317 426-540): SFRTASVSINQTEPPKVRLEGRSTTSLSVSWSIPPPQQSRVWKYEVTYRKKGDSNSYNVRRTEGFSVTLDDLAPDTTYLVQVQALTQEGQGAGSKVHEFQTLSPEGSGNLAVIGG

Binder | Kd
348-H4-357-L4 (antibody, human IgG1, kappa, V domains shown, human IgG1 / kappa; also called antibody of humanized heavy chain of SH348-1 and humanized light chain of SH357-1; swapped antibody) VH: QVQLVQSGAEVKKPGASVKVSCKASGYTFTHYSMHWVRQAPGQGLEWMGWINTYTGEPTYADDFKGRFVFSLDTSVSTAYLQLSSLKAEDTAVYYCATYYRYERDFDYWGQGTLVTVSS VL: DIVMTQSPLSLPVTPGEPASISCRSSQSIVHSSGITYLEWYLQKPGQSPQLLIYKVSNRFSGVPDRFSGSGSGTDFTLKISRVEAEDVGVYYCFQGSHVPYTFGQGTKVEIKR | 0.37 nM
348-H5-357-L5 (antibody, human IgG1, kappa, V domains shown, human IgG1 / kappa) VH: QVQLVQSGAEVKKPGASVKVSCKASGYTFTHYSMHWVKQAPGQGLKWMGWINTYTGEPTYADDFKGRFAFSLETSVSTAYLQLSSLKAEDTAVYFCATYYRYERDFDYWGQGTLVTVSS VL: DVLMTQSPLSLPVTPGEPASISCRSSQSIVHSSGITYLEWYLQKPGQSPKLLIYKVSNRFSGVPDRFSGSGSGTDFTLKISRVEAEDVGVYYCFQGSHVPYTFGQGTKVEIKR | 0.3 nM

Continued by falling Kd, values first:

Kd | Binder
0.37 nM | 348-H4-357-L5 (antibody, human IgG1, kappa, V domains shown, human IgG1 / kappa) VH: QVQLVQSGAEVKKPGASVKVSCKASGYTFTHYSMHWVRQAPGQGLEWMGWINTYTGEPTYADDFKGRFVFSLDTSVSTAYLQLSSLKAEDTAVYYCATYYRYERDFDYWGQGTLVTVSS VL: DVLMTQSPLSLPVTPGEPASISCRSSQSIVHSSGITYLEWYLQKPGQSPKLLIYKVSNRFSGVPDRFSGSGSGTDFTLKISRVEAEDVGVYYCFQGSHVPYTFGQGTKVEIKR
0.32 nM | 348-H5-357-L4 (antibody, human IgG1, kappa, V domains shown, human IgG1 / kappa) VH: QVQLVQSGAEVKKPGASVKVSCKASGYTFTHYSMHWVKQAPGQGLKWMGWINTYTGEPTYADDFKGRFAFSLETSVSTAYLQLSSLKAEDTAVYFCATYYRYERDFDYWGQGTLVTVSS VL: DIVMTQSPLSLPVTPGEPASISCRSSQSIVHSSGITYLEWYLQKPGQSPQLLIYKVSNRFSGVPDRFSGSGSGTDFTLKISRVEAEDVGVYYCFQGSHVPYTFGQGTKVEIKR

From patent publication WO2012008397A1 (dated 2012)
